According to patent US20150125424A1 (MICREOS B V, published 2015):

T1: Phage S16 (whole phage particle) (Phage S16, UniProt M1EAS5 1-638; M1EBB2 1-249)
T1 construct: The whole virion stood in the assay; All other virion proteins are left out; also called bacteriophage S16; CBS130493
T1 sequence 1: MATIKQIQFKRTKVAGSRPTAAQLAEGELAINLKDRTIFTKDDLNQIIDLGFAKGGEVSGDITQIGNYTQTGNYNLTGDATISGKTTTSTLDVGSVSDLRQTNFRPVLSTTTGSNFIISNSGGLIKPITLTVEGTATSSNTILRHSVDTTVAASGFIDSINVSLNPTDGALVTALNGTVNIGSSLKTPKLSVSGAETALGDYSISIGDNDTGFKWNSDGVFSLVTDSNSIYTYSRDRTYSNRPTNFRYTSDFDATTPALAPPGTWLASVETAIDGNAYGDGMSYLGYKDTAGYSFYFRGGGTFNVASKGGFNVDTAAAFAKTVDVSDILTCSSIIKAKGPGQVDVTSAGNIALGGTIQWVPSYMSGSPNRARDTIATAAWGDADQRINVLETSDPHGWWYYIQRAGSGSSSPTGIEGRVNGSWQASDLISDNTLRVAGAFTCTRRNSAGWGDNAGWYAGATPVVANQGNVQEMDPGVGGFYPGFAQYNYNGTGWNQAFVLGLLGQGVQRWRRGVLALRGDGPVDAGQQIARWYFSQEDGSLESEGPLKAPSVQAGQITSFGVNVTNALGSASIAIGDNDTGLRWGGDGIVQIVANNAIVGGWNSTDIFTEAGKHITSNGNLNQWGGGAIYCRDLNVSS
T1 sequence 2: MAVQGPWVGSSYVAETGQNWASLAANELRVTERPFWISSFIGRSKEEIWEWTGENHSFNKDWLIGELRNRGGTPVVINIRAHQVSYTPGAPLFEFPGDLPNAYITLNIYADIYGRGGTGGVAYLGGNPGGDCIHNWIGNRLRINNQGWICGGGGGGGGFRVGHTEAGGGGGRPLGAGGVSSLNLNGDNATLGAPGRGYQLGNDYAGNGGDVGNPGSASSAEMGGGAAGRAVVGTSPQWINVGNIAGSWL


Legend:
[1] = molecular target: outer membrane protein C (OmpC) of S. Typhimurium DT7155 (S. Typhimurium DT7155); assay: control of competition in pull down assay; S. Tm. DT7155 wt cells pre-incubated with HGFP, then phage S16 added; value is remaining S16 adsorption
[2] = molecular target: T1, Phage S16 (whole phage particle); assay: pull down assay (phage adsorption) on E. coli K-12 wt and E. coli K-12 ΔompC::ompC(K-12) cells

| Molecule | adsorption ratio of S16 after pre-incubation [1] | binding result [2] |
| --- | --- | --- |
| HGFP (6xHis-tagged GFP alone, control) | 93.8% | – |
| OmpC of E. coli K-12 (receptor, whole, on cells; Presented on E. coli K-12 wt cells, or expressed in trans from pBAD18 Amp^r in E. coli K-12 ΔompC; also called ompC(K-12)) AEVYNKDGNKLDLYGKVDGLHYFSDNKDVDGDQTYMRLGFKGETQVTDQLTGYGQWEYQIQGNSAENENNSWTRVAFAGLKFQDVGSFDYGRNYGVVYDVTSWTDVLPEFGGDTYGSDNFMQQRGNGFATYRNTDFFGLVDGLNFAVQYQGKNGNPSGEGFTSGVTNNGRDALRQNGDGVGGSITYDYEGFGIGGAISSSKRTDAQNTAAYIGNGDRAETYTGGLKYDANNIYLAAQYTQTYNATRVGSLGWANKAQNFEAVAQYQFDFGLRPSLAYLQSKGKNLGRGYDDEDILKYVDVGATYYFNKNMSTYVDYKINLLDDNQFTRDAGINTDNIVALGLVYQF | – | no binding |
